Experimental findings from the supplement of paper PMC9112550, “Optimization of the antimicrobial peptide Bac7 by deep mutational scanning” (BMC Biology, 2022) are described below.

For this series, the system named is Escherichia coli TOP10. The experiment in a line: shrunken log2 fold change of peptide-encoding DNA abundance (4.5 h post-induction vs induction); higher = less antimicrobial activity (less host growth inhibition). As to conditions: time post-induction: 4.5 h; library: site-saturation at positions 5, 18, 19, 20.
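Further: peptides expressed intracellularly from a pBAD plasmid library in pooled LB shake-flask culture, induced with 0.3% L-arabinose, DNA abundance read by NGS, three biological replicates, DESeq2 with apeglm shrinkage.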

Consider RRIRWRPPRLPRPRPRPYIGPRP, for which the “shrunken log2 fold change” value is -0.127.

For RRIRNRPPRLPRPRPRPWFFPRP, the “shrunken log2 fold change” value is -0.0137.

In the case of RRIRSRPPRLPRPRPRPDSIPRP, the “shrunken log2 fold change” value was 0.0681.

On to RRIRRRPPRLPRPRPRPHHAPRP, for which the “shrunken log2 fold change” value was -0.0424.

With RRIRYRPPRLPRPRPRPFLPPRP, the “shrunken log2 fold change” value is -0.557.

For RRIRWRPPRLPRPRPRPDLYPRP, the “shrunken log2 fold change” value turned out to be 0.0586.

RRIRYRPPRLPRPRPRPRGDPRP: the “shrunken log2 fold change” value is 0.316.

Consider RRIRARPPRLPRPRPRPSSMPRP, for which the “shrunken log2 fold change” value was -0.144.

On to RRIRSRPPRLPRPRPRPLNPPRP, for which the “shrunken log2 fold change” value is -0.0273.

With RRIRIRPPRLPRPRPRPQYCPRP, the “shrunken log2 fold change” value is -0.15.

As for RRIRYRPPRLPRPRPRPNFCPRP, the “shrunken log2 fold change” value is -0.00468.

In the case of RRIRVRPPRLPRPRPRPAPNPRP, the “shrunken log2 fold change” value worked out at 0.334.

As for RRIRPRPPRLPRPRPRPRFHPRP, the “shrunken log2 fold change” value is -0.108.

On to RRIRKRPPRLPRPRPRPQNRPRP, for which the “shrunken log2 fold change” value is -0.169.

On to RRIRVRPPRLPRPRPRPIWMPRP, for which the “shrunken log2 fold change” value was -0.0796.

RRIRGRPPRLPRPRPRPLSCPRP: the “shrunken log2 fold change” value was 0.276.

Turning to RRIRIRPPRLPRPRPRPLFYPRP, the “shrunken log2 fold change” value was -0.633.

Consider RRIRARPPRLPRPRPRPVQSPRP, for which the “shrunken log2 fold change” value was 0.14.

In the case of RRIRQRPPRLPRPRPRPNGQPRP, the “shrunken log2 fold change” value was -0.262.

For RRIRYRPPRLPRPRPRPYQSPRP, the “shrunken log2 fold change” value turned out to be 0.0169.

For the sequence RRIRERPPRLPRPRPRPPDMPRP, the “shrunken log2 fold change” value was -0.332.

In the case of RRIRRRPPRLPRPRPRPMTYPRP, the “shrunken log2 fold change” value is -0.0343.

With RRIRVRPPRLPRPRPRPCDQPRP, the “shrunken log2 fold change” value was -0.0149.

Turning to RRIRKRPPRLPRPRPRPFFMPRP, the “shrunken log2 fold change” value worked out at 0.112.

With RRIRPRPPRLPRPRPRPVFCPRP, the “shrunken log2 fold change” value is -0.113.

As for RRIRDRPPRLPRPRPRPGWHPRP, the “shrunken log2 fold change” value is 0.27.

Regarding RRIRHRPPRLPRPRPRPAYKPRP, the “shrunken log2 fold change” value is -0.102.

Take RRIRHRPPRLPRPRPRPYHEPRP: the “shrunken log2 fold change” value is -0.0135.

Turning to RRIRERPPRLPRPRPRPEDSPRP, the “shrunken log2 fold change” value stood at 0.00699.

With RRIRDRPPRLPRPRPRPPPTPRP, the “shrunken log2 fold change” value came out at 0.973.

As for RRIRPRPPRLPRPRPRPGCFPRP, the “shrunken log2 fold change” value came out at 0.158.

Turning to RRIRCRPPRLPRPRPRPYDEPRP, the “shrunken log2 fold change” value was -0.144.

Regarding RRIRYRPPRLPRPRPRPPYDPRP, the “shrunken log2 fold change” value is -0.553.

Turning to RRIRCRPPRLPRPRPRPYMEPRP, the “shrunken log2 fold change” value was -0.428.

Take RRIRIRPPRLPRPRPRPDPQPRP: the “shrunken log2 fold change” value was -0.186.

Take RRIRWRPPRLPRPRPRPIDRPRP: the “shrunken log2 fold change” value is -0.156.

Turning to RRIRGRPPRLPRPRPRPDGIPRP, the “shrunken log2 fold change” value is -0.0219.

For RRIRCRPPRLPRPRPRPAARPRP, the “shrunken log2 fold change” value came to 0.392.

With RRIRLRPPRLPRPRPRPDNNPRP, the “shrunken log2 fold change” value was -0.444.

Turning to RRIRMRPPRLPRPRPRPGRVPRP, the “shrunken log2 fold change” value stood at 0.919.

On to RRIRKRPPRLPRPRPRPIFSPRP, for which the “shrunken log2 fold change” value was -0.143.

On to RRIRCRPPRLPRPRPRPHEYPRP, for which the “shrunken log2 fold change” value is -0.253.

Take RRIRQRPPRLPRPRPRPGKRPRP: the “shrunken log2 fold change” value came out at 0.244.

On to RRIRNRPPRLPRPRPRPYLPPRP, for which the “shrunken log2 fold change” value is -0.245.

In the case of RRIRHRPPRLPRPRPRPAEPPRP, the “shrunken log2 fold change” value turned out to be 0.19.

For RRIRVRPPRLPRPRPRPNVWPRP, the “shrunken log2 fold change” value was 0.0782.

For the sequence RRIRHRPPRLPRPRPRPQVKPRP, the “shrunken log2 fold change” value was -1.6.

As for RRIRGRPPRLPRPRPRPSNCPRP, the “shrunken log2 fold change” value was determined as 0.0376.

As for RRIRDRPPRLPRPRPRPCLTPRP, the “shrunken log2 fold change” value came to 0.0157.

With RRIRPRPPRLPRPRPRPDNVPRP, the “shrunken log2 fold change” value is 0.115.

For the sequence RRIRHRPPRLPRPRPRPSNRPRP, the “shrunken log2 fold change” value is -0.771.

Regarding RRIRKRPPRLPRPRPRPKQKPRP, the “shrunken log2 fold change” value was determined as 0.054.

RRIRRRPPRLPRPRPRPWYQPRP: the “shrunken log2 fold change” value was -3.03.

With RRIRFRPPRLPRPRPRPGAIPRP, the “shrunken log2 fold change” value is -0.244.

As to RRIRCRPPRLPRPRPRPVIDPRP, the “shrunken log2 fold change” value stood at 0.136.

As for RRIRQRPPRLPRPRPRPDVSPRP, the “shrunken log2 fold change” value stood at 0.0409.

As for RRIRNRPPRLPRPRPRPCFLPRP, the “shrunken log2 fold change” value is -0.389.

Take RRIRVRPPRLPRPRPRPVGKPRP: the “shrunken log2 fold change” value is -0.0282.

For RRIRARPPRLPRPRPRPLKGPRP, the “shrunken log2 fold change” value came out at 0.052.

As to RRIRKRPPRLPRPRPRPHRCPRP, the “shrunken log2 fold change” value came to 0.0753.

In the case of RRIRMRPPRLPRPRPRPSEQPRP, the “shrunken log2 fold change” value was -0.0153.

On to RRIRFRPPRLPRPRPRPIWAPRP, for which the “shrunken log2 fold change” value came out at 0.0219.

With RRIRERPPRLPRPRPRPFFQPRP, the “shrunken log2 fold change” value is -0.173.

With RRIRMRPPRLPRPRPRPVPNPRP, the “shrunken log2 fold change” value was determined as 0.12.

Take RRIRRRPPRLPRPRPRPKQPPRP: the “shrunken log2 fold change” value is 0.0672.

RRIRARPPRLPRPRPRPPMPPRP: the “shrunken log2 fold change” value was found to be 0.405.

As for RRIRFRPPRLPRPRPRPPWGPRP, the “shrunken log2 fold change” value was 0.399.

For RRIRMRPPRLPRPRPRPTKLPRP, the “shrunken log2 fold change” value came to 0.287.

Take RRIRFRPPRLPRPRPRPCHSPRP: the “shrunken log2 fold change” value was -0.0231.

In the case of RRIRYRPPRLPRPRPRPTCVPRP, the “shrunken log2 fold change” value is -0.503.

As to RRIRFRPPRLPRPRPRPWHMPRP, the “shrunken log2 fold change” value is -0.121.

Turning to RRIRCRPPRLPRPRPRPNHDPRP, the “shrunken log2 fold change” value was -0.589.

Turning to RRIRARPPRLPRPRPRPWMHPRP, the “shrunken log2 fold change” value was 0.026.

For RRIRARPPRLPRPRPRPMHAPRP, the “shrunken log2 fold change” value turned out to be 0.409.

As for RRIRTRPPRLPRPRPRPGRLPRP, the “shrunken log2 fold change” value stood at 0.171.

Consider RRIRGRPPRLPRPRPRPSGDPRP, for which the “shrunken log2 fold change” value is 0.952.

As to RRIRYRPPRLPRPRPRPPDIPRP, the “shrunken log2 fold change” value is -0.157.

For RRIRCRPPRLPRPRPRPQVKPRP, the “shrunken log2 fold change” value was 0.0486.

RRIRIRPPRLPRPRPRPGQPPRP: the “shrunken log2 fold change” value is 0.0462.

Take RRIRRRPPRLPRPRPRPPLRPRP: the “shrunken log2 fold change” value is 0.964.

With RRIRQRPPRLPRPRPRPMLHPRP, the “shrunken log2 fold change” value is -0.0433.

Consider RRIRERPPRLPRPRPRPKWMPRP, for which the “shrunken log2 fold change” value was -0.0884.

For the sequence RRIRMRPPRLPRPRPRPSIRPRP, the “shrunken log2 fold change” value was determined as 0.0426.

For the sequence RRIRTRPPRLPRPRPRPNVGPRP, the “shrunken log2 fold change” value amounted to 0.202.

With RRIRWRPPRLPRPRPRPAGAPRP, the “shrunken log2 fold change” value was determined as 0.392.

In the case of RRIRWRPPRLPRPRPRPLPHPRP, the “shrunken log2 fold change” value worked out at 0.188.

RRIRVRPPRLPRPRPRPSPDPRP: the “shrunken log2 fold change” value was -0.226.

As to RRIRLRPPRLPRPRPRPCSKPRP, the “shrunken log2 fold change” value is -0.0788.

Take RRIRSRPPRLPRPRPRPTYMPRP: the “shrunken log2 fold change” value was -0.55.

As to RRIRLRPPRLPRPRPRPVCEPRP, the “shrunken log2 fold change” value was 0.39.

Take RRIRYRPPRLPRPRPRPWLSPRP: the “shrunken log2 fold change” value is -0.205.

RRIRARPPRLPRPRPRPMLRPRP: the “shrunken log2 fold change” value stood at 0.155.

For RRIRIRPPRLPRPRPRPVNKPRP, the “shrunken log2 fold change” value was -0.426.

For RRIRQRPPRLPRPRPRPCGYPRP, the “shrunken log2 fold change” value was -0.0698.

For the sequence RRIRTRPPRLPRPRPRPKTAPRP, the “shrunken log2 fold change” value is -0.0452.

Consider RRIRQRPPRLPRPRPRPGGDPRP, for which the “shrunken log2 fold change” value amounted to 0.0869.

As for RRIRLRPPRLPRPRPRPNLKPRP, the “shrunken log2 fold change” value was -0.367.

RRIRVRPPRLPRPRPRPPPMPRP: the “shrunken log2 fold change” value amounted to 0.641.

Regarding RRIRLRPPRLPRPRPRPFVAPRP, the “shrunken log2 fold change” value is -0.0302.

For the sequence RRIRYRPPRLPRPRPRPTKTPRP, the “shrunken log2 fold change” value was -0.0705.

In the case of RRIRSRPPRLPRPRPRPDVYPRP, the “shrunken log2 fold change” value is -0.0361.

As to RRIRVRPPRLPRPRPRPIVHPRP, the “shrunken log2 fold change” value was -0.00223.

Regarding RRIRSRPPRLPRPRPRPWNTPRP, the “shrunken log2 fold change” value is -0.237.

Consider RRIRKRPPRLPRPRPRPATAPRP, for which the “shrunken log2 fold change” value is 0.18.

Take RRIRWRPPRLPRPRPRPACQPRP: the “shrunken log2 fold change” value was 0.015.

Regarding RRIRMRPPRLPRPRPRPMVNPRP, the “shrunken log2 fold change” value is -0.254.

Consider RRIRCRPPRLPRPRPRPPEFPRP, for which the “shrunken log2 fold change” value turned out to be 0.0967.

As for RRIRTRPPRLPRPRPRPWRDPRP, the “shrunken log2 fold change” value worked out at 0.00299.

Regarding RRIRPRPPRLPRPRPRPRSCPRP, the “shrunken log2 fold change” value stood at 0.395.

As for RRIRMRPPRLPRPRPRPYNWPRP, the “shrunken log2 fold change” value is -0.337.

For the sequence RRIRKRPPRLPRPRPRPTPQPRP, the “shrunken log2 fold change” value stood at 0.896.

Take RRIRSRPPRLPRPRPRPRTLPRP: the “shrunken log2 fold change” value came to 0.128.

With RRIRHRPPRLPRPRPRPLLRPRP, the “shrunken log2 fold change” value was 0.0548.

Take RRIRERPPRLPRPRPRPLPRPRP: the “shrunken log2 fold change” value was 0.179.

Consider RRIRDRPPRLPRPRPRPKTYPRP, for which the “shrunken log2 fold change” value is -0.227.

Consider RRIRIRPPRLPRPRPRPCSLPRP, for which the “shrunken log2 fold change” value was -0.172.

As to RRIRNRPPRLPRPRPRPRGIPRP, the “shrunken log2 fold change” value is -0.0954.

Regarding RRIRRRPPRLPRPRPRPRCQPRP, the “shrunken log2 fold change” value is 0.385.

Regarding RRIRERPPRLPRPRPRPGIIPRP, the “shrunken log2 fold change” value is -0.0249.

Consider RRIRNRPPRLPRPRPRPMSCPRP, for which the “shrunken log2 fold change” value was -0.0294.

Regarding RRIRDRPPRLPRPRPRPAITPRP, the “shrunken log2 fold change” value came out at 0.284.

For RRIRLRPPRLPRPRPRPVWRPRP, the “shrunken log2 fold change” value worked out at 0.299.

Turning to RRIRLRPPRLPRPRPRPPTDPRP, the “shrunken log2 fold change” value was 0.127.

Take RRIRDRPPRLPRPRPRPTRRPRP: the “shrunken log2 fold change” value worked out at 0.206.

RRIRFRPPRLPRPRPRPGIQPRP: the “shrunken log2 fold change” value is -0.11.
